This is an account of results in US20150299314A1 (TORAY INDUSTRIES, published 2015).

T1: CAPRIN-1 protein expressed on the cell surface of human cancer cells (human, UniProt Q14444 2-709)
T1 construct: whole, on cells; Target of all flow cytometry and ADCC assays; the cell line is named under assay; also called human CAPRIN-1; cytoplasmic- and proliferation-associated protein 1
T1 sequence (looked up): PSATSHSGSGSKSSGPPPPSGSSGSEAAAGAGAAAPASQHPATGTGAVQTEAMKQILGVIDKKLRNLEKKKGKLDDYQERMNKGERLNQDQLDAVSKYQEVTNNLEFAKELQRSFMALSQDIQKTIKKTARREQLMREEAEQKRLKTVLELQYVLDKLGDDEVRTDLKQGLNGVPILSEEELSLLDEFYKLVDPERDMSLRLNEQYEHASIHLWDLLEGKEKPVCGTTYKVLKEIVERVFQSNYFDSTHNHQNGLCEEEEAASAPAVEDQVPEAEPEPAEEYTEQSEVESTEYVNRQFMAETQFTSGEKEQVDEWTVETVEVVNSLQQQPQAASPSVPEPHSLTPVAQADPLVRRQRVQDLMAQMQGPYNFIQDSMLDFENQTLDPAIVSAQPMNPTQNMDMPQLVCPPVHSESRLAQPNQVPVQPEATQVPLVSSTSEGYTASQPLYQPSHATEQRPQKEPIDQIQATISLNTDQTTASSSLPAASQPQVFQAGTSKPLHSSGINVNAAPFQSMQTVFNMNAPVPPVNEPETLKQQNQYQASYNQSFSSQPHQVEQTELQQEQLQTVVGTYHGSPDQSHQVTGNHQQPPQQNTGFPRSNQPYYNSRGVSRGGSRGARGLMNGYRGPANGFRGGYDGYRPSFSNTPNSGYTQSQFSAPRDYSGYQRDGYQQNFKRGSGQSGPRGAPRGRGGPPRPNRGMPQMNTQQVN

T2: human CAPRIN-1 recombinant protein (human, UniProt Q14444 1-709)
T2 construct: also called CAPRIN-1 protein; antigen protein (human CAPRIN-1 protein)
T2 sequence: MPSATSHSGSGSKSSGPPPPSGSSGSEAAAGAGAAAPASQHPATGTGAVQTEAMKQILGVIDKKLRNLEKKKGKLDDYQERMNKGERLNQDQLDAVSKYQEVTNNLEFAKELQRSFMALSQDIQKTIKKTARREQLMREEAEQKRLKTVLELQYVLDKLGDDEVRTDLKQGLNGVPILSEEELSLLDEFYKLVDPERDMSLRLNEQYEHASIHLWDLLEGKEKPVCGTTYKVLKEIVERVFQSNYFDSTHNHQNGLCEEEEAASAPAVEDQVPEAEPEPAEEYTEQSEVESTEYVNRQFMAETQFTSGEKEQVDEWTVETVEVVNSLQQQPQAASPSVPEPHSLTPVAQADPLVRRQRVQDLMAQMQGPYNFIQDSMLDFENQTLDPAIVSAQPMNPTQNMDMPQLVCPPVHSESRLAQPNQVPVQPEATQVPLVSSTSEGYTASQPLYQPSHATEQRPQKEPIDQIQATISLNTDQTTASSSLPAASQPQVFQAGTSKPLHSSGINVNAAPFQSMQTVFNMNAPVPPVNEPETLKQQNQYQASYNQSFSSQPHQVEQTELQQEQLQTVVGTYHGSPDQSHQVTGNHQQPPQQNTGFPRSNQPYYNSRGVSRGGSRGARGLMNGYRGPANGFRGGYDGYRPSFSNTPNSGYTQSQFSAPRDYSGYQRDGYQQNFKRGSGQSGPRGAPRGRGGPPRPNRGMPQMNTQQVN

T3: polypeptide set forth in SEQ ID NO: 430 (human)
T3 peptide: ATQVPLVSSTSEGYTA

B1: humanized anti-CAPRIN-1 antibody #2 (antibody, human IgG1, V domains shown)
VH: EVQLVESGGGLVQPGGSLRLSCAASGFSFSGSYYMSWVRQAPGKGLEWIAYIYIGDGVTAYANWAKGRFTISKDNSKNTLYLQMNSLRAEDTAVYFCARGNKLWGPGTLVTVSS
VL: DIQMTQSPSSLSASVGDRVTIKCQASQSISSYLAWYQQKPGKAPKRLIYDASNLDSGVPSRFSGSGSGTDFTFTISSLQPEDIATYYCQCTAVSSATIYGNAFGGGTKVEIK
B2: humanized anti-CAPRIN-1 antibody #1 (antibody, human IgG1, V domains shown)
VH: B1 VH with E1Q, Q13K, K73R, S76A, T79S, K102R, P106Q
VL: B1 VL with S14A, A43P
B3: humanized anti-CAPRIN-1 antibody #3 (antibody, human IgG1, V domains shown)
VH: B1 VH with K73R, F96Y
VL: B1 VL
B4: mouse anti-CAPRIN-1 antibody #31 (antibody, V domains shown)
VH: GPELVKPGASVKISCKASGYSFTGYFMNWVMQSHGKSLEWIGRINPYNGDTFYNQKFKGKATLTVDKSSSTAHMELRSLASEDSAVYYCARRIHYYYGSSYYAMDYWGQEPHH
VL: DVQITQSPSYLAASPGETITINCRASKSISKYLAWYQEKPGKTNKLLIYSGSTLQSGIPSRFSGSGSGTDFTLTISSLEPEDFAMYYCQQHNEYPWTFGGGTKLEIKR
notes: mouse hybridoma antibody; also called mouse anti-CAPRIN-1 monoclonal antibody #31
B5: mouse anti-CAPRIN-1 antibody #33 (antibody)
chain 1: GPGLVKPSQSLSLTCSVTGYSITSGYYWNWIRQFPGNKLEWMGYISYDGSNNYNPSLKNRISITRDTSKNQFFLKLNSVTTEDTATYYCATGMAWFAYW
chain 2: not shown
B6: mouse monoclonal antibody #18 (antibody, V domains shown)
VH: LQESGAELARPGASVKLSCKASGYTFTSYWMQWVKQRPGQGLEWIGAIYPGDGDTRYTQKFKGKATLTADKSSSTAYMQLSSLASEDSAVYYCARGEYGNYFAYWGQGTTVTVSS
VL: TSDASLGERVTITCKASQDINSYLSWFQQKPGKSPKTLIYRANRLVDGVPSRFSGSGSGQDYSLTISSLEYEDMGIYYCLQYDEFPLTFGGGTKLEIKQ
notes: mouse hybridoma antibody; also called anti-CAPRIN-1 mouse monoclonal antibody #18; anti-CAPRIN-1 monoclonal antibody #18
B7: mouse monoclonal antibody #3 (antibody, V domains shown)
VH: GGGLVKPGGSLKLSCAASGFTFSSYGMSWVRQTPEKRLEWVATISSGGSYTYYPDSVKGRFTISRDNAKNTLYLQMSSLRSEDTAMYYCASLASYYFDYWGQGTTLTVSS
VL: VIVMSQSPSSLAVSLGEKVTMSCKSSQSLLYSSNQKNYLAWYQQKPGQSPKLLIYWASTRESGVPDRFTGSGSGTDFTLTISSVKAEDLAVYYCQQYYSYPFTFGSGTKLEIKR
B8: mouse monoclonal antibody #6 (antibody)
chain 1: DAELVKPGASVKISCKASGYTFTDHSIHWVQQKPEQGLEWIGYISPGNGNIKYNEKFKGKATLTADKSSSTAYMQLNSLTSEDSAVYFCKRSLGRGGPYYFDYWGQGTTVTVSS
chain 2: DIVLTQAAPSLPVTPGESVSISCRSSKSLLHSNGNTYLYWFLQRPGQSPQLLIYRMSNLASGVPDRFSGSGSGTAFTLRISRVEAEDVGVYYCMQHREYPVTFGSGPN
B9: mouse monoclonal antibody #14 (antibody, V domains shown)
VH: EVQLHQFGAELVKPGASVKISCKASGYTFTDYNMDWVKQSHGKSLEWIGDINPNYDSTSYNQKFKGKATLTVDKSSSTAYMELRSLTSEDTAVYYCARSRSYDYEGFAYWGQGTLVTVSA
VL: DIQLTQSPASLSASVGETVTITCRASGNIHNYLAWYQQKQGKSPQLLVYNAKTLADGVPSRFSGSGSGTQYSLKINSLQPEDFGSYYCQHFWSTLTFGGGTKLEIKQ
notes: mouse hybridoma antibody; also called anti-CAPRIN-1 mouse monoclonal antibody #14; anti-CAPRIN-1 monoclonal antibody #14
B10: mouse monoclonal antibody #15 (antibody, V domains shown)
VH: B9 VH
VL: SGDRVSLSCRASQSISNYLHWYQQKSHESPRLLIKYASQSISGIPSRFSGSGSGTDFTLSINSVETEDFGMYFCQQSNSWPYTFGAGTKLEIKQ
notes: mouse hybridoma antibody; also called anti-CAPRIN-1 mouse monoclonal antibody #15; anti-CAPRIN-1 monoclonal antibody #15
B11: mouse monoclonal antibody #13 (antibody, V domains shown)
VH: EVQLHQFGAELVKPGASVKISCKASGYTFTDYNMDWVKQSHGKSLEWIGDINPNYDSTSYNQKFKGKATLTVDKSSSTAYMELRSLTSEDTAVYYCARSRSYDYEGFAYWGQGTLVTVSAAKTTPPSVY
VL: AVLRCSRGLLVIWISDIQLTQSPSSLAVTAGEKVTMSCKSSQSLLWSVNQKNYLSWYQQKQRQPPKLLIYGASIRESWVPDRFTGSGSGTDFTLTISNVHAEDLAVYYCQHNHGSFLPSRSEQVPSWRSNNR
notes: mouse hybridoma antibody; also called anti-CAPRIN-1 mouse monoclonal antibody #13; anti-CAPRIN-1 monoclonal antibody #13

Numbering of substitutions follows the chain as printed. A value given as a limit tells only on which side of the number the result lay.

One test has as its target T1, CAPRIN-1 protein expressed on the cell …. Put plainly: reactivity with gallbladder cancer cell lines, method not detailed.
Consider B1, for which the binding result was “binds”.

As for B2, the binding result is listed as “binds”.

As to B3, the binding result is “binds”.

The target is the same in a further test. Put plainly: flow cytometry, TGBC14TKB cells, antibody 20 ug/mL, secondary antibody only as control. The protocol:
(§1) A human gallbladder cancer cell line TGBC14TKB was investigated whether or not a CAPRIN-1 protein is expressed on the cell surface. 5×10⁵ cells of the gallbladder cancer cell line were centrifuged with a 1.5-mL micro centrifugation tube. The cells were subjected to reaction with each mouse anti-CAPRIN-1 antibody at a final concentration of 20 μg/mL, followed by being left to stand on ice for 1 hour. After washing with PBS, the cells were reacted with a 100-fold diluted Alexa488-labeled goat anti-mouse IgG antibody (manufactured by life technologies), followed by being left to stand on ice for […]. After washing with PBS, the fluorescence intensity was measured with FACS Calibur available from Becton, Dickinson and Company. As a negative control, only the secondary antibody was used in the reaction.
as §1, with “cell surface using mouse anti-CAPRIN-1 monoclonal antibodies #30 to #36.” for “cell surface.”, “of TGBC14TKB” for “of the gallbladder cancer cell line”, “each of” for “each”, “anti-CAPRIN-1 antibodies #30 to #36” for “anti-CAPRIN-1 antibody”, “Company. Separately, the cells were subjected to reaction with” for “Company. As a negative control,”, “antibody as a negative control.” for “antibody was used in the reaction.”
In the case of B4, the “increase in fluorescence intensity over control” value is at least 35%.

Turning to B5, the “increase in fluorescence intensity over control” value is at least 35%.

Another test has as its target T2, human CAPRIN-1 recombinant protein. Kind of test: reactivity with CAPRIN-1 protein, method not detailed.
Regarding B1, the binding result was “binds”.

For B2, the binding result is reported as “binds”.

On to B3, for which the binding result is given as “binds”.

For the next test, the target named is T1, CAPRIN-1 protein expressed on the cell …. Kind of test: flow cytometry, TGBC14TKB cells, culture supernatant, isotype control antibody as control. The protocol:
Subsequently, a gallbladder cell line TGBC14TKB, which was confirmed to express a CAPRIN-1 gene, was investigated for whether or not a CAPRIN-1 protein is expressed on the surfaces of these cells. 1×10⁶ cells of TGBC14TKB were centrifuged with a 1.5-mL micro centrifugation tube. To the cells was added the culture supernatant (100 μL) containing any of anti-CAPRIN-1 mouse monoclonal antibodies #1 to #22 reacting to cancer cell surface produced in Example 4 and anti-CAPRIN-1 mouse-chicken chimeric antibodies #1 to #3 produced in the above (2), followed by being left to stand on ice for 1 hour. After washing with PBS, the cells were suspended in a FITC-labeled goat anti-mouse IgG antibody (manufactured by life technologies) diluted by 500-fold with PBS containing 0.1% FBS, followed by being left to stand on ice for 1 hour. After washing with PBS, the fluorescence intensity was measured with FACS Calibur available from Becton, Dickinson and Company. Separately, as a control, the same procedure as in above was performed using an iso-type control antibody, instead of the culture supernatants containing the anti-CAPRIN-1 mouse monoclonal antibodies #1 to #22 and the mouse-chicken chimeric antibodies #1 to #3. As a result, the fluorescence intensity in the cells to which any of the monoclonal antibodies #1 to #22 and the mouse-chicken chimeric antibodies #1 to #3 was added was 20% or more higher than that in the control in every case. Specifically, in the case of using mouse-chicken chimeric antibody #1, the fluorescence intensity was enhanced by 200% or more. […] The rate of increase in the fluorescence intensity is represented by the rate of increase in the mean fluorescence intensity (MFI value) in each cell and is calculated by the following calculation formula: […]
Take B6: the “rate of increase in mean fluorescence intensity over control” value (from here on “rate of increase”) is at least 20%.

With B7, the “rate of increase” value is at least 20%.

In the case of B8, the “rate of increase” value is at least 20%.

Regarding B9, the “rate of increase” value is at least 20%.

Turning to B10, the “rate of increase” value is at least 20%.

Regarding B11, the “rate of increase” value is at least 20%.

A further test has the same target. Kind of test: cell-based or functional assay.
On to B6, for which the “cytotoxicity (ADCC, 51Cr release) on TGBC14TKB, human NK cells” value (from here on “cytotoxicity (ADCC, 51Cr release)”) was at least 15%.

Turning to B7, the “cytotoxicity (ADCC, 51Cr release)” value was at least 15%.

For B8, the “cytotoxicity (ADCC, 51Cr release)” value is at least 15%.

Turning to B9, the “cytotoxicity (ADCC, 51Cr release)” value was at least 15%.

As to B10, the “cytotoxicity (ADCC, 51Cr release)” value was at least 15%.

For the molecule B11, the “cytotoxicity (ADCC, 51Cr release)” value was at least 15%.

A further test concerns the target T3, polypeptide set forth in SEQ ID NO: 430. Kind of test: reactivity with the epitope peptide, method not detailed.
Consider B1, for which the binding result is reported as “binds”.

Consider B2, for which the binding result is reported as “binds”.

B3: the binding result is recorded as “binds”.
